Results from patent US8809287B2, “Compositions and methods for altering Wnt autocrine signaling” (Icahn School of Medicine at Mount Sinai, priority 2004, dated 2014).
Entries after “also recorded” stand apart in the source; their conditions may differ.

B1: FRP1: human secreted Frizzled Related Protein 1, Wnt antagonist; expressed from pBabe-derived retrovirus with carboxy-terminal HA tag (protein, UniProt Q8N474 32-314, looked up)
Secreted frizzled-related …: SEYDYVSFQSDIGPYQSGRFYTKPPQCVDIPADLRLCHNVGYKKMVLPNLLEHETMAEVKQQASSWVPLLNKNCHAGTQVFLCSLFAPVCLDRPIYPCRWLCEAVRDSCEPVMQFFGFYWPEMLKCDKFPEGDVCIAMTPPNATEASKPQGTTVCPPCDNELKSEAIIEHLCASEFALRMKIKEVKKENGDKKIVPKKKKPLKLGPIKKKDLKKLVLYLKNGADCPCHQLDNLSHHFLIMGRKVKSQYLLTAIHKWDKKNKEFKNFMKKMKNHECPTFQSVFK
modifications: C-terminal HA tag
notes: human secreted Frizzled Related Protein 1, Wnt antagonist; expressed from pBabe-derived retrovirus with carboxy-terminal HA tag
B2: DKK1: Dickkopf-1, secreted Wnt antagonist protein that binds Wnt co-receptor LRP6; used purified, in conditioned media or retrovirally expressed with HA tag (protein, UniProt O94907 32-266, looked up)
Dickkopf-related protein 1: TLNSVLNSNAIKNLPPPLGGAAGHPGSAVSAAPGILYPGGNKYQTIDNYQPYPCAEDEECGTDEYCASPTRGGDAGVQICLACRKRRKRCMRHAMCCPGNYCKNGICVSSDQNHFRGEIEETITESFGNDHSTLDGYSRRTTLSSKMYHTKGQEGSVCLRSSDCASGLCCARHFWSKICKPVLKEGQVCTKHRRKGSHGLEIFQRCYCGEGLSCRIQKDHHQASNSSRLHTCQRH
modifications: HA tag in some uses

Key:
Assay type in all cases: cell-based, human
MDAMB157 cells [1] = assay: tBh-induced apoptosis (Annexin/PI FACS) in MDAMB157 cells; conditions: each concentration of tBh, over-expression vs vector
Method: (§1) To assess the effects of Wnt inhibition by FRP1 or DKK1 on the response of MDAMB157 cells to apoptotic stimuli, we exposed AB589 or MDAMB157 cells expressing either vector control, FRP1 or DKK1 to increasing concentrations of tert-butyl hydroperoxide (tBh) (Sigma) a known inducer of oxidative stress that causes DNA damage through reactive oxygen species (ROS) (Macip et al., (2003) Mol. Cell. Biol. 23:8576-8585), and analyzed the apoptotic response. Sub-confluent cultures were treated with increasing amounts of tert-butyl hydroperoxide (tBH) for 2 hours. Twenty-four hours later, cells were washed in PBS, trypsinized and incubated with Annexin and PI using the Annexin-V-Fluos Staining kit (Roche). Fluorescent stained cells were subjected to FACS (Beckton Dickinson FACScan) using Cell Quest 3.2 software (Beckton Dickinson) for acquisition and analysis.

AB589 cells = assay: tBh-induced apoptosis (Annexin/PI FACS) in AB589 cells
Method: as §1

keratin 8 = assay: RNA blot of keratin 8 in MDAMB157 cells; conditions: stable expression
Method: (§2) Total RNAs from MDAMB157 cells exogenously expressing vector alone, FRP1, or DKK1 were extracted using Triazol (Invitrogen), separated by agarose gel electrophoresis (1% agarose gel) and transferred to a nylon membrane (Hybond, Pharmacia). Probes were labeled by the Random Prime Labelling System method (Amersham Biosciences), and hybridization was performed overnight utilizing the Hybrisol I solution (Serologicals Corporation) according to the manufacturer's instructions. Normalization was performed utilizing a commercial human GADPH control probe (BD Biosciences Clontech). Probes were labelled with α-^32P-dCTP.
(§3) Since canonical Wnt signaling appears to be involved in maintaining epithelial progenitor cells of several tissues (van de Wetering et al. (2002) Cell 111:241-250; Alonso and Fuchs (2003) Genes Dev. 17:1189-1200; Reya et al. (2003) Nature 423:409-414; Polesskaya et al. (2003) Cell 113, 841-852), including the mouse mammary gland (Li et al. (2003) Proc Natl Acad Sci U.S.A. 100:15853-15858; Liu et al. (2004) Proc. Nat'l Acad. Sci. U.S.A. 101:4158-4163), we also investigated whether downregulation of Wnt signaling in MDAMB157 tumor cells affected their differentiated state. […] All of these findings provide evidence for a Wnt autocrine transforming mechanism in human tumor cells.

MYC = assay: Northern blot of MYC in MDAMB157 cells; conditions: stable expression
Method: (§4) Alterations in the expression of a number of genes identified as targets of canonical Wnt signaling have been reported, although it should be noted that there is variability among Wnt target genes in different cell systems (Giles et al., (2003). Biochim. Biophys. Acta 1653:1-24). To investigate the effects of FRP1 and DKK1 inhibition on gene expression in MDAMB157 breast tumor cells, Northern blot analysis was performed on representative Wnt transcriptional targets, including Myc (He et al., (1998) Science 281:1509-1512), the LEF-1 transcription factor (Filali et al., (2002) J. Biol. Chem. 277:33398-33410) and the dominant negative helix-loop-helix transcriptional regulator, Id2 (Rockman et al., (2001) J. Biol. Chem. 276:45113-45119).
as §2

uncomplexed β-catenin [2] = assay: Uncomplexed β-catenin in Wnt autocrine tumor cells (summary statements); conditions: summary of the Examples
Method: (§5) β-catenin levels were assessed using the GST-E-cadherin binding assay, which has been previously described (Bafico et al., (1998) Oncogene 16:2819-2825). Briefly, bacterially expressed GST-E-cadherin was purified with glutathione-Sepharose beads and incubated with 1 mg of each cell lysate. The GST-E-cadherin/[…]-catenin complex bound to the beads was recovered by centrifugation and analyzed by SDS-PAGE followed by immunoblotting. The uncomplexed β-catenin was detected using a monoclonal antibody to β-catenin (Transduction Laboratories). Unphosphorylated β-catenin was detected with a monoclonal antibody specific for β-catenin dephosphorylated at residues 27-37 (Alexis, Läufelfingen, Switzerland). FRP1-HA and DKK1-HA were detected with an anti-HA monoclonal antibody (Hybridoma Center, Mount Sinai School of Medicine, New York).

MDAMB157 cells [3] = assay: Saturation density (cell counts) of MDAMB157 cells; conditions: MDAMB157 over-expressing antagonist vs vector transduced parental cells
Method: MDAMB157 cells exogenously expressing either vector control, FRP1 or DKK I were transferred at 1.5×10^5 cells per well in 6-well plates. Cell counts were performed in duplicate at the indicated times, and values represent the mean of two independent experiments.

AB589 = assay: Saturation density of AB589 cells; conditions: AB589 infected with retrovirus (data not shown)
keratin 18 = assay: RNA blot of keratin 18 in MDAMB157 cells; conditions: stable expression
Method: as §2, §3

uncomplexed β-catenin [4] = assay: Uncomplexed β-catenin in MDAMB157 breast tumor cells; set-up: levels of uncomplexed β-catenin: dose or concentration left out as unconfirmed; conditions: for uncomplexed β-catenin levels: stable expression by retroviral mediated transduction
Method: as §5
MDAMB157 cell cultures were exposed to increasing concentrations of purified DKK1, and then were solubilized and analyzed for uncomplexed β-catenin using immunoblot analysis and an anti-[…]-catenin antibody as described in Example 3.
MDAMB157 cells were infected with vector alone, FRP1-HA (described in Example 1), or DKK1-HA (described in Example 1) retroviruses and marker selected. Uncomplexed β-catenin protein levels were analyzed using immunoblot analysis with an anti-β-catenin antibody as described in Example 3. Expression of FRP1-HA or DKK1-HA were assessed by immunblot analysis of lysates using an anti-HA monoclonal antibody (Hybridoma Center, Mount Sinai School of Medicine, New York).

ID2 = assay: Northern blot of ID2 in MDAMB157 cells; conditions: stable expression
Method: as §4, §2

LEF-1 = assay: Northern blot of LEF-1 in MDAMB157 cells; conditions: stable expression
Method: as §4, §2

cyclin D1 = assay: Northern blot of cyclin D1 in MDAMB157 cells; conditions: stable expression (data not shown)
Method: as §4
as §2, with “α-^32P-dCTP. […]” for “α-^32P-dCTP.”

Molecule	level of apoptosis (MDAMB157 cells [1])	apoptotic responses compared to the vector infected cells (AB589 cells)	expression of keratin 8 (keratin 8)	expression of MYC (MYC)	up regulated uncomplexed β-catenin levels (uncomplexed β-catenin [2])	saturation density (MDAMB157 cells [3])	saturation density (AB589)	keratin 18 levels (keratin 18)	uncomplexed β-catenin levels (uncomplexed β-catenin [4])	expression of ID2 (ID2)	expression of LEF-1 (LEF-1)	levels of cyclin D1 (cyclin D1)	levels of uncomplexed β-catenin (uncomplexed β-catenin [4]; increasing concentrations of purified DKK1)
B1	statistically significant increase	no detectable differences	striking increase	reduced	down regulation	decreased saturation density	no detectable effect	increase	dramatic reduction	reduced	reduced	did not observe significant changes	–
B2	statistically significant increase	no detectable differences	striking increase	reduced	down regulation; also recorded: striking reduction	decreased saturation density	no detectable effect	increase	dramatic reduction	reduced	reduced	did not observe significant changes	dose dependent, marked reduction
